Laboratory results published in IntAct's records for PubMed 30126976.

B1: Colorectal mutant cancer protein (Homo sapiens), P23508 (parent)
chain: MNSGVAMKYGNDSSAELSELHSAALASLKGDIVELNKRLQQTERERDLLEKKLAKAQCEQSHLMREHEDVQERTTLRYEERITELHSVIAELNKKIDRLQGTTIREEDEYSELRSELSQSQHEVNEDSRSMDQDQTSVSIPENQSTMVTADMDNCSDLNSELQRVLTGLENVVCGRKKSSCSLSVAEVDKHIEQLTTASEHCDLAIKTVEEIEGVLGRDLYPNLAEERSRWEKELAGLREENESLTAMLCSKEEELNRTKATMNAIREERDRLRRRVRELQTRLQSVQATGPSSPGRLTSTNRPINPSTGELSTSSSSNDIPIAKIAERVKLSKTRSESSSSDRPVLGSEISSIGVSSSVAEHLAHSLQDCSNIQEIFQTLYSHGSAISESKIREFEVETERLNSRIEHLKSQNDLLTITLEECKSNAERMSMLVGKYESNATALRLALQYSEQCIEAYELLLALAESEQSLILGQFRAAGVGSSPGDQSGDENITQMLKRAHDCRKTAENAAKALLMKLDGSCGGAFAVAGCSVQPWESLSSNSHTSTTSSTASSCDTEFTKEDEQRLKDYIQQLKNDRAAVKLTMLELESIHIDPLSYDVKPRGDSQRLDLENAVLMQELMAMKEEMAELKAQLYLLEKEKKALELKLSTREAQEQAYLVHIEHLKSEVEEQKEQRMRSLSSTSSGSKDKPGKECADAASPALSLAELRTTCSENELAAEFTNAIRREKKLKARVQELVSALERLTKSSEIRHQQSAEFVNDLKRANSNLVAAYEKAKKKHQNKLKKLESQMMAMVERHETQVRMLKQRIALLEEENSRPHTNETSL
B2: Copine-8 (Homo sapiens), Q86YQ8 (parent)
chain: MDSRYNSTAGIGDLNQLSAAIPATRVEVSVSCRNLLDRDTFSKSDPICVLYVQGVGNKEWREFGRTEVIDNTLNPDFVRKFILDYFFEERENLRFDLYDVDSKSPNLSKHDFLGQVFCTLGEIVGSQGSRLEKPIVGIPGKKCGTIILTAEELNCCRDAVLMQFCANKLDKKDFFGKSDPFLVFYRSNEDGSFTICHKTEVVKNTLNPVWQAFKISVRALCNGDYDRTIKVEVYDWDRDGSHDFIGEFTTSYRELSRGQSQFNVYEVVNPKKKGKKKKYTNSGTVTLLSFLVETEVSFLDYIKGGTQINFTVAIDFTASNGNPAQPTSLHYMNPYQLNAYGMALKAVGEIVQDYDSDKMFPALGFGAKLPPDGRISHEFALNGNPQNPYCDGIEGVMEAYYRSLKSVQLYGPTNFAPVINHVARYASSVKDGSQYFVLLIVTDGVISDMAQTKESIVNASKLPMSIIIVGVGPAEFDAMVELDGDDVRVSSRGKYAERDIVQFVPFRDYIDRSGNHILSMARLAKDVLAEIPEQFLSYMRARGIKPSPAPPPYTPPTHVLQTQI
B3: Plakophilin-4 (Homo sapiens), Q99569 (parent)
chain: MPAPEQASLVEEGQPQTRQEAASTGPGMEPETTATTILASVKEQELQFQRLTRELEVERQIVASQLERCRLGAESPSIASTSSTEKSFPWRSTDVPNTGVSKPRVSDAVQPNNYLIRTEPEQGTLYSPEQTSLHESEGSLGNSRSSTQMNSYSDSGYQEAGSFHNSQNVSKADNRQQHSFIGSTNNHVVRNSRAEGQTLVQPSVANRAMRRVSSVPSRAQSPSYVISTGVSPSRGSLRTSLGSGFGSPSVTDPRPLNPSAYSSTTLPAARAASPYSQRPASPTAIRRIGSVTSRQTSNPNGPTPQYQTTARVGSPLTLTDAQTRVASPSQGQVGSSSPKRSGMTAVPQHLGPSLQRTVHDMEQFGQQQYDIYERMVPPRPDSLTGLRSSYASQHSQLGQDLRSAVSPDLHITPIYEGRTYYSPVYRSPNHGTVELQGSQTALYRTGSVGIGNLQRTSSQRSTLTYQRNNYALNTTATYAEPYRPIQYRVQECNYNRLQHAVPADDGTTRSPSIDSIQKDPREFAWRDPELPEVIHMLQHQFPSVQANAAAYLQHLCFGDNKVKMEVCRLGGIKHLVDLLDHRVLEVQKNACGALRNLVFGKSTDENKIAMKNVGGIPALLRLLRKSIDAEVRELVTGVLWNLSSCDAVKMTIIRDALSTLTNTVIVPHSGWNNSSFDDDHKIKFQTSLVLRNTTGCLRNLSSAGEEARKQMRSCEGLVDSLLYVIHTCVNTSDYDSKTVENCVCTLRNLSYRLELEVPQARLLGLNELDDLLGKESPSKDSEPSCWGKKKKKKKRTPQEDQWDGVGPIPGLSKSPKGVEMLWHPSVVKPYLTLLAESSNPATLEGSAGSLQNLSAGNWKFAAYIRAAVRKEKGLPILVELLRMDNDRVVSSVATALRNMALDVRNKELIGKYAMRDLVNRLPGGNGPSVLSDETMAAICCALHEVTSKNMENAKALADSGGIEKLVNITKGRGDRSSLKVVKAAAQVLNTLWQYRDLRSIYKKDGWNQNHFITPVSTLERDRFKSHPSLSTTNQQMSPIIQSVGSTSSSPALLGIRDPRSEYDRTQPPMQYYNSQGDATHKGLYPGSSKPSPIYISSYSSPAREQNRRLQHQQLYYSQDDSNRKNFDAYRLYLQSPHSYEDPYFDDRVHFPASTDYSTQYGLKSTTNYVDFYSTKRPSYRAEQYPGSPDSWV
B4: Rho guanine nucleotide exchange factor 16 (Homo sapiens), Q5VV41 (parent)
chain: MAQRHSDSSLEEKLLGHRFHSELRLDAGGNPASGLPMVRGSPRVRDDAAFQPQVPAPPQPRPPGHEEPWPIVLSTESPAALKLGTQQLIPKSLAVASKAKTPARHQSFGAAVLSREAARRDPKLLPAPSFSLDDMDVDKDPGGMLRRNLRNQSYRAAMKGLGKPGGQGDAIQLSPKLQALAEEPSQPHTRSPAKNKKTLGRKRGHKGSFKDDPQLYQEIQERGLNTSQESDDDILDESSSPEGTQKVDATIVVKSYRPAQVTWSQLPEVVELGILDQLSTEERKRQEAMFEILTSEFSYQHSLSILVEEFLQSKELRATVTQMEHHHLFSNILDVLGASQRFFEDLEQRHKAQVLVEDISDILEEHAEKHFHPYIAYCSNEVYQQRTLQKLISSNAAFREALREIERRPACGGLPMLSFLILPMQRVTRLPLLMDTLCLKTQGHSERYKAASRALKAISKLVRQCNEGAHRMERMEQMYTLHTQLDFSKVKSLPLISASRWLLKRGELFLVEETGLFRKIASRPTCYLFLFNDVLVVTKKKSEESYMVQDYAQMNHIQVEKIEPSELPLPGGGNRSSSVPHPFQVTLLRNSEGRQEQLLLSSDSASDRARWIVALTHSERQWQGLSSKGDLPQVEITKAFFAKQADEVTLQQADVVLVLQQEDGWLYGERLRDGETGWFPEDFARFITSRVAVEGNVRRMERLRVETDV

Variants of: B1
Conditions: with scrib_human SCRIB
Target sequence in this assay (Q14160 whole entry): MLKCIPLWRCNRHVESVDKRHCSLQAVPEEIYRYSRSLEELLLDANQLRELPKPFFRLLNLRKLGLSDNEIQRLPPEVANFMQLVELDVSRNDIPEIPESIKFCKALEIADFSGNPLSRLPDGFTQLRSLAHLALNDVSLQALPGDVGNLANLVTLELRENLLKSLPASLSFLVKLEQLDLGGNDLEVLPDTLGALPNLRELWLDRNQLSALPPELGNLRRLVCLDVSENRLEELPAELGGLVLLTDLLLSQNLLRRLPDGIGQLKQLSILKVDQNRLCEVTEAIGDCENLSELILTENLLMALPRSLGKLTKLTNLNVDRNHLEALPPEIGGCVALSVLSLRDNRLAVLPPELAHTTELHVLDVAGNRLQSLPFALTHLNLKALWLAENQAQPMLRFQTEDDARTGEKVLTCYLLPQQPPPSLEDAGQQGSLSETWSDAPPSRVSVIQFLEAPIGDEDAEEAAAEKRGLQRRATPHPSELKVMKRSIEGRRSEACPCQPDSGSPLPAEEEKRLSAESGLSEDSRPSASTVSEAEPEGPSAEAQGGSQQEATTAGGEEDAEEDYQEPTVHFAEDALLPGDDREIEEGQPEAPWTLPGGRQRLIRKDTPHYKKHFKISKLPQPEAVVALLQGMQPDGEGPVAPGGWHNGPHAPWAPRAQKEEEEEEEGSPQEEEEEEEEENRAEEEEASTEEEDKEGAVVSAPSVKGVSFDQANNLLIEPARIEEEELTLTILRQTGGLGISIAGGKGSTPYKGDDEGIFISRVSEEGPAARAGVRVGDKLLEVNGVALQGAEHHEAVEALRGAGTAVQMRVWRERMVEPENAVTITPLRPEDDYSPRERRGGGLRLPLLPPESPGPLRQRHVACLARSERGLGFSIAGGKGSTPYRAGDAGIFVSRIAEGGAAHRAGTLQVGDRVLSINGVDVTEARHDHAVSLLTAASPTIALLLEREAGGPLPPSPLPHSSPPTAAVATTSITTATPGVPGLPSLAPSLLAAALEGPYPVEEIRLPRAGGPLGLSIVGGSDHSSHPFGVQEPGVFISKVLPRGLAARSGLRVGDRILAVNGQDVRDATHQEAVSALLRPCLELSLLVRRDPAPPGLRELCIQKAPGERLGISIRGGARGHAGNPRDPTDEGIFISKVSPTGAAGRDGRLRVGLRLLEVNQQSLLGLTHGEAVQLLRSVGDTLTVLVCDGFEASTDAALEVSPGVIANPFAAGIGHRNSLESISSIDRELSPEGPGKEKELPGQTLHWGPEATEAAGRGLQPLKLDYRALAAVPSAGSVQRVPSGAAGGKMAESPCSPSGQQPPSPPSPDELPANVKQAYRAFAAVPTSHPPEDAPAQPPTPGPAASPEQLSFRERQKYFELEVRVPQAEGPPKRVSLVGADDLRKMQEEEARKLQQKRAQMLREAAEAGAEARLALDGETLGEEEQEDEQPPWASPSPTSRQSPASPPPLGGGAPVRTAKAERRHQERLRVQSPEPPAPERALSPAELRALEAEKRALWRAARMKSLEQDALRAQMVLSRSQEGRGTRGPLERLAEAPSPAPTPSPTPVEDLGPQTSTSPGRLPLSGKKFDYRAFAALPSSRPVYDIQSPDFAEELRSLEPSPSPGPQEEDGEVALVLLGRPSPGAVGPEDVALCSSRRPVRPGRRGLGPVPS

| Variant | effect of a mutation on the interaction |
| --- | --- |
| S828E | increasing interaction strength |

Variants of: B1
Conditions: with shan1_human SHANK1, Q9Y566
Chain of shan1_human SHANK1, Q9Y566 (Q9Y566 whole entry): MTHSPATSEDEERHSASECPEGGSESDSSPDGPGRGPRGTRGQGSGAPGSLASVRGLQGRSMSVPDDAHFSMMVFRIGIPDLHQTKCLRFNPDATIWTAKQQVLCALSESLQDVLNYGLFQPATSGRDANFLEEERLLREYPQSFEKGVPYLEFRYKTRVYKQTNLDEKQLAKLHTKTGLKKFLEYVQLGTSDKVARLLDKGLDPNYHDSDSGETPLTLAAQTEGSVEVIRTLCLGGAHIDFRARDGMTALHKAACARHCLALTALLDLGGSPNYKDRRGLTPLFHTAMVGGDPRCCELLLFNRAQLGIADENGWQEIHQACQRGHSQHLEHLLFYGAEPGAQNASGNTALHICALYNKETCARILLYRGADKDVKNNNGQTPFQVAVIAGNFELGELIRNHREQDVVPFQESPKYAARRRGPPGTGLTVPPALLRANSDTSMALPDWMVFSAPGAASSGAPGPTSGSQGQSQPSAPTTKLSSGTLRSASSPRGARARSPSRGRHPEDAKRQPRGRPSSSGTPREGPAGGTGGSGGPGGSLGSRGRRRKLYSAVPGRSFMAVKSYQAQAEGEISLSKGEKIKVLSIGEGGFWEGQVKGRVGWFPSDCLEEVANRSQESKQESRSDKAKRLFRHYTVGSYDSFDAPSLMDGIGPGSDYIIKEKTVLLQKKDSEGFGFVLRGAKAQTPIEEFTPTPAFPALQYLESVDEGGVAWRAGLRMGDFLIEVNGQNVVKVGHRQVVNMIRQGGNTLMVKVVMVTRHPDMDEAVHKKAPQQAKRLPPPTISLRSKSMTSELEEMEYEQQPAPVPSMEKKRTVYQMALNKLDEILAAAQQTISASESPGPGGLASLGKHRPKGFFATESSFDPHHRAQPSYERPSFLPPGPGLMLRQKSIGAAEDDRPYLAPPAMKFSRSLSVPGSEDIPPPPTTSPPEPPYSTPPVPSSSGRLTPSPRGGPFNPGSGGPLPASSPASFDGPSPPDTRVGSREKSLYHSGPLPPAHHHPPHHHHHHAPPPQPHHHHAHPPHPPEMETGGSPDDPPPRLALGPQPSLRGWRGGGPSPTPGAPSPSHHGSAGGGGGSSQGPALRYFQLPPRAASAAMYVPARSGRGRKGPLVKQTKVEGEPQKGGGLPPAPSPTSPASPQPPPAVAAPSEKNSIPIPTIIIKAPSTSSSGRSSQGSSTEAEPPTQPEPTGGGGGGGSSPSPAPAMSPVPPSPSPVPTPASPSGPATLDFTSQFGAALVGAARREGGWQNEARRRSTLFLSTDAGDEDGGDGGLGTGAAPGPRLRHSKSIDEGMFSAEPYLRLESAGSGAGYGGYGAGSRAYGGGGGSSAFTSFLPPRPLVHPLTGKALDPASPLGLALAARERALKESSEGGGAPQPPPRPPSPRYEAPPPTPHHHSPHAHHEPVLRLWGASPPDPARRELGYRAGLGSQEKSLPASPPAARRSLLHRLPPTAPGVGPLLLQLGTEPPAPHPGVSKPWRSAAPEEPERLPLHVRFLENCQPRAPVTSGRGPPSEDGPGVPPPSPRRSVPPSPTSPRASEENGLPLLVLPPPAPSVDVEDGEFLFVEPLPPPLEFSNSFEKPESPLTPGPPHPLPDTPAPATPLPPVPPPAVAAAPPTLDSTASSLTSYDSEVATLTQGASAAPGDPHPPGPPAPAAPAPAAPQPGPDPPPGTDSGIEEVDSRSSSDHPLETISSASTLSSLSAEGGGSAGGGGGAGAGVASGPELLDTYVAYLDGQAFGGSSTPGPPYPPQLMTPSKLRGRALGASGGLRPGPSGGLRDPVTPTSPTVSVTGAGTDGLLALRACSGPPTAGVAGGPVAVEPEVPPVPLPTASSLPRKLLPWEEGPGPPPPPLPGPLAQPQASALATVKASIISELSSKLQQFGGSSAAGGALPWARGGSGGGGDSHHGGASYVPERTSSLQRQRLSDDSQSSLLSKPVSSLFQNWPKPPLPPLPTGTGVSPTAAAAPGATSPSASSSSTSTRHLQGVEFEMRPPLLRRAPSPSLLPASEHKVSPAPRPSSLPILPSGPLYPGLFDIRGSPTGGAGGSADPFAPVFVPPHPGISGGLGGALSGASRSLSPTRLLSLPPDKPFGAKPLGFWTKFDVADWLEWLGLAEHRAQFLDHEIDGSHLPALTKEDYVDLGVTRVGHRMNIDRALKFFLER

| Variant | effect of a mutation on the interaction |
| --- | --- |
| S828E | decreasing interaction strength |

Variants of: B1
Conditions: with dlg1_human DLG1, Q12959
Target sequence in this assay (Q12959 whole entry, looked up): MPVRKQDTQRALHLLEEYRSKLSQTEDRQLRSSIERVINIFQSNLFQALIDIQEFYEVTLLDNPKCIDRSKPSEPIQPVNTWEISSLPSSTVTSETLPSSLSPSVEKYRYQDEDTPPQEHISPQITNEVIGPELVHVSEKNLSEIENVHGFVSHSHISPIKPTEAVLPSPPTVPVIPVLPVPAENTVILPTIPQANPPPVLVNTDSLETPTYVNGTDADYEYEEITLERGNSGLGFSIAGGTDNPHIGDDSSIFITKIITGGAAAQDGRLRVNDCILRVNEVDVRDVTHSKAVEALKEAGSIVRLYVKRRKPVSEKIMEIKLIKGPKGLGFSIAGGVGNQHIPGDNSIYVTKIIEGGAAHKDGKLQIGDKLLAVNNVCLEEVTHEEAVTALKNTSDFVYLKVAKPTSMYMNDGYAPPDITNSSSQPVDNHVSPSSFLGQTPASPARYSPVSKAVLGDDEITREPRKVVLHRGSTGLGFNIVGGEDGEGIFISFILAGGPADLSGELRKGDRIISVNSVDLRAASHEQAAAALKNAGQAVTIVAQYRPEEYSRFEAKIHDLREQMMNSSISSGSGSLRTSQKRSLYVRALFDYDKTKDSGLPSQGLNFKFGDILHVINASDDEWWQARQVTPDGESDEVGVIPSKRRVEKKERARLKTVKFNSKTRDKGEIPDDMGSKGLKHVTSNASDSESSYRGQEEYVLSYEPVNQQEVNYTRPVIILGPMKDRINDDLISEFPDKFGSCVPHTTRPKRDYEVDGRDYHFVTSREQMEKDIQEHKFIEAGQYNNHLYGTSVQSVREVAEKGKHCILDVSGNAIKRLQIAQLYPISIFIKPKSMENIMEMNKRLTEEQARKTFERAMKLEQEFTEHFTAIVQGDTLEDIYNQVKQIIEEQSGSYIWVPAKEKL

| Variant | effect of a mutation on the interaction |
| --- | --- |
| S828E | decreasing interaction strength |

Variants of: B2
Conditions: with scrib_human SCRIB
Target sequence in this assay (Q14160 whole entry): as the sequence (Q14160 whole entry) above

| Variant | effect of a mutation on the interaction |
| --- | --- |
| T557E | causing an interaction |

Variants of: B3
Conditions: with dlg1_human DLG1, Q12959
Target sequence in this assay (Q12959 whole entry, looked up): as the sequence (Q12959 whole entry, looked up) above

| Variant | effect of a mutation on the interaction |
| --- | --- |
| S1190E | disrupting interaction strength |

Variants of: B4
Conditions: with scrib_human SCRIB
Target sequence in this assay (Q14160 whole entry): as the sequence (Q14160 whole entry) above

| Variant | effect of a mutation on the interaction |
| --- | --- |
| T707E | disrupting interaction strength |

Variants of: B4
Conditions: with dlg1_human DLG1, Q12959
Target sequence in this assay (Q12959 whole entry, looked up): as the sequence (Q12959 whole entry, looked up) above

| Variant | effect of a mutation on the interaction |
| --- | --- |
| T707E | disrupting interaction strength |
